According to publication PMC5593947 (2017):

How the values were obtained:
[1] = target: T1, Coxsackievirus A6 (CVA6) A-particle (Coxsackievirus A6 strain TW-2007-00141); assay: SPR
T1 chain 1: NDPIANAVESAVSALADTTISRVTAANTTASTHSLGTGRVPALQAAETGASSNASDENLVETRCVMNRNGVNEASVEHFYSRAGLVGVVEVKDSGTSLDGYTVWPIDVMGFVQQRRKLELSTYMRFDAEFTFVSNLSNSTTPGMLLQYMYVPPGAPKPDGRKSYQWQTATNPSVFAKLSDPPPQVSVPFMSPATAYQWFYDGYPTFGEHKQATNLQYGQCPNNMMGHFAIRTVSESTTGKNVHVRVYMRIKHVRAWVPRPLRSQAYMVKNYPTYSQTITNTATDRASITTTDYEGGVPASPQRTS
T1 chain 2: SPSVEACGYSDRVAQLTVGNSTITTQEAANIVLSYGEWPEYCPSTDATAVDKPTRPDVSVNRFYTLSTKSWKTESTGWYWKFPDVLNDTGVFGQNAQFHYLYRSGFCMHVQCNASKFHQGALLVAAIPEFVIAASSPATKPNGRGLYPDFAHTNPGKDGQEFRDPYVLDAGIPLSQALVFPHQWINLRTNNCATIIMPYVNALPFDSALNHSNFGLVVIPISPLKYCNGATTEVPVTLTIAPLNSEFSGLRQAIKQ
T1 chain 3: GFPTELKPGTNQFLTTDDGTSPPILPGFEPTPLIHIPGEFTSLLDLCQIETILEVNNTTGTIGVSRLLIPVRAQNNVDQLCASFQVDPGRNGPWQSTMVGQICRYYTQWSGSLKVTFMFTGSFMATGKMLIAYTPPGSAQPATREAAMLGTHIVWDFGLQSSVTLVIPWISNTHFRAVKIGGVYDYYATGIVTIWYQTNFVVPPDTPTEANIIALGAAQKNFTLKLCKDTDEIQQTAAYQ

[2] = target: T1, Coxsackievirus A6 (CVA6) A-particle; assay: SPR
[3] = target: T1, Coxsackievirus A6 (CVA6) A-particle; assay: SPR
[4] = target: T2, Coxsackievirus A6 (CVA6) procapsid (Coxsackievirus A6 strain TW-2007-00141); assay: ELISA
T2 chain 1: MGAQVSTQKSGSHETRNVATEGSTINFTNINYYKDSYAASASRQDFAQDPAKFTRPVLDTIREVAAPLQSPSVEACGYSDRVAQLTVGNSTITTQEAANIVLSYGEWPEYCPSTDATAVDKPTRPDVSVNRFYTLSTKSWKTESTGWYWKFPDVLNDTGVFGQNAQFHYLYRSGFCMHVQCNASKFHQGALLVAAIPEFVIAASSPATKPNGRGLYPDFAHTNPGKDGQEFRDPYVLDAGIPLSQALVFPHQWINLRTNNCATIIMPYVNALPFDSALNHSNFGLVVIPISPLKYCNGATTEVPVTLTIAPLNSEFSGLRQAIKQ
T2 chain 2: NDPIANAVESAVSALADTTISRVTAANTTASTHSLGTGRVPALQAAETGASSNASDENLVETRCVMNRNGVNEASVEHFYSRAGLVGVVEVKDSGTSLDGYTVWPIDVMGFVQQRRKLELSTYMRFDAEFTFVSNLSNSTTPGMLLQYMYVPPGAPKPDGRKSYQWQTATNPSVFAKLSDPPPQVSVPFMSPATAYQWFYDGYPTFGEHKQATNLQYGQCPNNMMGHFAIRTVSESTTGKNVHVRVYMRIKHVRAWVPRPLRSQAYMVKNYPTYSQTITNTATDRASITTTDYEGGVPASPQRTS
T2 chain 3: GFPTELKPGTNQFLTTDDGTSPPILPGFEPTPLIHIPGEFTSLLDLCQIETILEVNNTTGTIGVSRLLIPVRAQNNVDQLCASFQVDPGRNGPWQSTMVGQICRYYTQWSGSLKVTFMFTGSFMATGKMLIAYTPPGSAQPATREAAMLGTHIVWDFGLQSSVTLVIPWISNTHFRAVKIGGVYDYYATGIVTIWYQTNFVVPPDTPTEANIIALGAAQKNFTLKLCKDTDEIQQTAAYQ

B1: neutralizing monoclonal antibody 1D5 (antibody, V domains shown)
VH: EVQLVESGGGLVKPGGSLKLSCAASGFAFSTYDMSWVRQTPEKRLELVAHISSGGGYIYYPDTVKGRFTISRDNAKNTLYLQMSSLKSEDTAMYYCTRQKGLYYGFDYWGQGTTLTVSS
VL: DIVMTQSHKFMSTSVGDRVSITCKASQDVNTAVAWYQQRPGQSPKLLIYSASYRYTGVPDRFTGSGSGTDFTFTISSVQAEDLAVYYCQQHYTTPHTFGGGTKLEIK
B1 was tested, and the Ka [1] was 2.41e+08 M⁻¹, the koff [2] was 0.000634 s⁻¹ and the Kd [3] was 4.14 nM. It also gave an EC50 [4] of 0.069 µg/mL.
